Measured values from publication PMC3728920, “In situ structural analysis of the Yersinia enterocolitica injectisome” (eLife, 2013).

Target: the molecule itself
Assay: cryo-EM structure; cryo-electron tomography and sub-volume averaging (~3 nm) of purified YscC (0.2 mg/ml) reconstituted into liposomes of E. coli polar lipids at 5:1 lipid-to-protein ratio; oligomers isolated beforehand in DDM by sucrose gradient, MonoQ and Superose 6 gel filtration

B1: YscC (outer membrane secretin of the Yersinia enterocolitica injectisome) (natural protein)
chain: QELDWLPIPYVYVAKGESLRDLLTDFGANYDATVVVSDKINDKVSGQFEHDNPQDFLQHIASLYNLVWYYDGNVLYIFKNSEVASRLIRLQESEAAELKQALQRSGIWEPRFGWRPDASNRLVYVSGPPRYLELVEQTAAALEQQTQIRSEKTGALAIEIFPLKYASASDRTIHYRDDEVAAPGVATILQRVLSDATIQQVTVDNQRIPQAATRASAQARVEADPSLNAIIVRDSPERMPMYQRLIHALDKPSARIEVALSIVDINADQLTELGVDWRVGIRTGNNHQVVIKTTGDQSNIASNGALGSLVDARGLDYLLARVNLLENEGSAQVVSRPTLLTQENAQAVIDHSETYYVKVTGKEVAELKGITYGTMLRMTPRVLTQGDKSEISLNLHIEDGNQKPNSSGIEGIPTISRTVVDTVARVGHGQSLIIGGIYRDELSVALSKVPLLGDIPYIGALFRRKSELTRRTVRLFIIEPRIIDEGIAHHLALGNGQDLRTGILTVDEISNQSTTLNKLLGGSQCQPLNKAQEVQKWLSQNNKSSYLTQCKMDKSLGWRVVEGACTPAQSWCVSAPKRGVL
notes: YscC, secretin of the Ysc injectisome, Yersinia enterocolitica E40; full-length yscC with a stop codon amplified from the pYVe40 plasmid and cloned into pBAD/mycHisA (pMA6); The signal peptide is probably cut on export (surmise); The introduction cites 12-15 subunits for secretin rings; also called secretin YscC; YscC oligomers
Question: Does B1 bind?
Answer: Result: binds
